The series addresses T1, DRL1 (Drooping leaf1, YABBY C2C2) (Zea mays, UniProt A0A804LG43 A0A804LG43:1-207).
T1 sequence: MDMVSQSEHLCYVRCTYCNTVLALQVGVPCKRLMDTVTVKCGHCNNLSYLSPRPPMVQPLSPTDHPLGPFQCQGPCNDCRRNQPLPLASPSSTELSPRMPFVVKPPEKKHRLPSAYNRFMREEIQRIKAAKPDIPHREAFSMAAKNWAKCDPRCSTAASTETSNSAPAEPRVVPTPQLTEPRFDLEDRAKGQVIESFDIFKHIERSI
Kind of series: EMSA; room temperature 20 min; band slightly brighter than W22 probe; competed by unlabeled probe. The following applies: tags: His fusion (PET32a, E. coli Rosetta, nickel beads); label: biotin. Here is the method:
EMSA (electrophoretic mobility shift assay) was carried out to validate the above speculation. First of all, biotin-labeled EMSA probes (UPA2-NIL^W22 biotin probes: UPA2-NIL^W22-F, UPA2-NIL^W22-R; UPA2-NIL^W22 competitive probe: UPA2-NIL^W22-com-F, UPA2-NIL^W22-com-R; UPA2-NIL⁸⁷⁵⁹ biotin probes: UPA2-NIL⁸⁷⁵⁹-F, UPA2-NIL⁸⁷⁵⁹-R; UPA2-NIL⁸⁷⁵⁹ competitive probe: UPA2-NIL⁸⁷⁵⁹-com-F, UPA2-NIL⁸⁷⁵⁹-com-R) were designed for the sequences of UPA2-NIL^W22 and UPA2-NIL⁸⁷⁵⁹ respectively. The probe included a C2C2-binding motif and upstream and downstream flanking sequences (each 22 bp). In the meantime, the corresponding sequences that were not labeled with biotin were synthesized as competitive probes. Next, the DRL1 CDS region was recombined onto a PET32a prokaryotic expression vector by a homologous recombination method to construct an expression vector of DRL1-His fusion proteins and it was introduced into the expression strain Rosetta to induce the expression of the DRL1-His fusion proteins. Finally, the DRL1-His fusion proteins were obtained through purification using Nickel beads. […]

B1: UPA2-NIL8759 probe (dsDNA)
DNA 1: AACTGCGCATGCGCGCGCTGAGTGTGGTCCTTCTCTTTTAATTACTACTG
DNA 2: CAGTAGTAATTAAAAGAGAAGGACCACACTCAGCGCGCGCATGCGCAGTT
Consider B1, for which the binding result is “binds”.

The values above are taken from patent US20230175000, “MAIZE GENE ZMRAVL1 AND FUNCTIONAL SITE AND USE THEREOF” (CHINA AGRICULTURAL UNIVERSITY, published 2023).
